One molecule from patent US20240026037A1 (Memorial Sloan Kettering, published 2024) can be followed below.

Usually IC50 stands for the midpoint of a concentration-inhibition curve. What is called EC50 is the concentration at which the effect is half-maximal. In general, Kd refers to the free concentration of one partner at which half of the binding sites on the other are occupied at equilibrium, for simple one-to-one binding. By kon is commonly meant a measure of how fast the partners come together. The term koff denotes the rate constant with which the complex falls apart.

The target of experiment [1] is T1, Human GPA33 on GPA33+ colorectal cancer cell lines (Colo 205, LS 174T, SW 1222) (human, UniProt Q99795 22-319).
T1 construct: Endogenous GPA33 on human colorectal cancer cell lines; also called surface human GPA33; GPA33+ tumor cell lines
T1 sequence: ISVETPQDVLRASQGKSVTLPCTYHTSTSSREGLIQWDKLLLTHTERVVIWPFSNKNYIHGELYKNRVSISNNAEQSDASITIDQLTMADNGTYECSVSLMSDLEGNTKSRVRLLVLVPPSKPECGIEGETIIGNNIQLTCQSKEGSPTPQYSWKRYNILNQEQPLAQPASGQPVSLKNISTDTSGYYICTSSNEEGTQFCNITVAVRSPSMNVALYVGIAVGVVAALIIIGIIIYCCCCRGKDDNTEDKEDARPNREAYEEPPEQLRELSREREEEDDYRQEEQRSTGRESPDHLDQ
Nature of the experiment: flow cytometry, LS 174T cells. On the technique in general: A flow cytometer gives signals particle by particle.

Experiment [2] concerns the target T1, Human GPA33 on GPA33+ colorectal cancer …. Kind of experiment: flow cytometry, SW 1222 cells.
The target is the same in experiment [3]. Kind of experiment: flow cytometry, Colo 205 cells; Colo 205 cells.
Experiment [4] has the same target. Nature of the experiment: FACS binding to LS174T cells (GPA33+).
Experiment [5] shares this target. Nature of the experiment: FACS binding to SW1222 cells (GPA33+).
The target is the same in experiment [6]. Nature of the experiment: FACS binding to Colo205 cells (GPA33+).
Experiment [7] has as its target T2, Human GPA33 (recombinant protein, Novoprotein) (human, UniProt Q99795 22-235).
T2 construct: Bought recombinant protein immobilized on a CM5 chip; also called GPA33 antigen; tumor antigen GPA33
T2 sequence: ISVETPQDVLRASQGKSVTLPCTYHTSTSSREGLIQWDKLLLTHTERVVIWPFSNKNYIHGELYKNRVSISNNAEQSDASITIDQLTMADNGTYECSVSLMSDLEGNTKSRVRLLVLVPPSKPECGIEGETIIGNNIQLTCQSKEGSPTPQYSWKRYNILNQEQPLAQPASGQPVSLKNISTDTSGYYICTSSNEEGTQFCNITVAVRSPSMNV
Kind of experiment: SPR (Biacore), human GPA33 immobilized on CM5 chip, two-state fit. As for the experimental part:
(§1) SPR analysis. Human GPA33 (Novoprotein, Summit, NJ) was immobilized on CM5 chips. Five concentrations of 2-fold serially diluted huA33 IgG1 or huA33-BsAbs (starting at 20 nM) were flowed over the chip using a Biacore™ T100 system (GE Healthcare, Chicago, IL). Binding kinetics of huA33 were measured at 25° C. and binding kinetics of huA33-BsAbs were measured at both 25° C. and 37° C. The sensorgrams were fitted with two state binding model for both to derive kinetic parameters.
For orientation: SPR reads the build-up and loss of mass on a sensor chip optically.

Experiment [8] has as its target T2, Human GPA33 (recombinant protein, …). Nature of the experiment: SPR (Biacore), human GPA33 immobilized on CM5 chip, two-state fit, ka1. As for the experimental part: as §1
Experiment [9] shares this target. Nature of the experiment: SPR (Biacore), human GPA33 immobilized on CM5 chip, two-state fit, kd1. A digest of the protocol: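 The off-rate (kd1) was measured by surface plasmon resonance on a Biacore T100, with recombinant human GPA33 (Novoprotein) immobilised on a CM5 chip. Antibodies were flowed over at five concentrations, 2-fold serial dilutions starting at 20 nM. The parent IgG1 was run at 25° C and bispecific formats at 25° C and 37° C. Sensorgrams were fitted with a two-state binding model to derive the kinetic parameters.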

Experiment [10] deals with T1, Human GPA33 on GPA33+ colorectal cancer …. Kind of experiment: FACS binding to SW1222 cells (GPA33+); the text prints 1.78 nM for this pair.
Experiment [11] has as its target T2, Human GPA33 (recombinant protein, …). Kind of experiment: SPR (Biacore), human GPA33 immobilised on the chip; KD relative to that of TC170. In outline:
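Surface plasmon resonance on a Biacore system with immobilised recombinant human GPA33 (Novoprotein) was used to determine KD by kinetic fitting. The values given are each KD divided by the KD of a reference molecule.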

Experiment [12] addresses T1, Human GPA33 on GPA33+ colorectal cancer …. Kind of experiment: FACS titration on SW1222 cells, geometric mean MFI (the text prints 1.78 nM and calls it IC50) [Cont.].
The target is the same in experiment [13]. Kind of experiment: FACS titration on SW1222 cells, geometric mean MFI (same value as in FIG. 4A; the text prints 1.78 nM) [contd.].

B1: TC171 (bispecific antibody)
chain: DIQMTQSPSSLSASVGDRVTITCKASQNVRTVVAWYQQKPGKAPKTLIYLASNRHTGVPSRFSGSGSGTEFTLTISNLQPEDFATYYCLQHWSYPLTFGSGTKLEVKRGGGGSGGGGSGGGGSGGGGSGGGGSGGGGSEVQLVESGGGLVKPGGSLRLSCAASGFAFSTYDMSWVRQAPGKGLEWVSTISSGGSYTYYADSVKGRFTISRDNAKNSLYLQMNSLRAEDTAVYYCAPTTVVPFAYWGQGTLVTVSAGGGGSGGGGSGGGGSGGGGSHVQLVESGGGLVQPGGSLRLSCAASGFSLTDYGVHWVRQAPGKGLEWLGVIWSGGGTAYNTALISRFTISRDNSKNTLYLQMNSLRAEDTAVYYCARRGSYPYNYFDAWGCGTLVTVSSGGGGSGGGGSGGGGSGGGGSGGGGSGGGGSQAVVTQEPSLTVSPGGTVTLTCGSSTGAVTASNYANWVQQKPGQCPRGLIGGHNNRPPGVPARFSGSLLGGKAALTLLGAQPEDEAEYYCALWYSDHWVIGGGTKLTVLGTPLGDTTHTSGKPLDGEYFTLQIRGRERFEMFRELNEALELKDAQAGKEPGGSGGAPHHHHHH
notes: As TC170, with the other VH/VL orientation of the anti-GPA33 scFv; Carries the p53 SADA (tetramerization) domain; also called GPA33xDOTA SADA
Turning to B1, the IC50 stood at 0.56 nM in experiment [1] and 1.78 nM in [2]. Further, the EC50 in [3] was determined as 1.04 nM; in [10], 1.77 nM; in [12], 0.77 nM; in experiment [13], 0.77 nM. The results for the “fold change of binding EC50 (relative to TC170, lower is better)” value in experiment [4], in experiment [5] and in [6] were 1.81, 1.07 and 1.41, respectively. The Kd in [7] turned out to be 0.023 nM. The ka2 in experiment [7] is 0.00663 s⁻¹. Also, the kd2 in experiment [7] came out at 0.000628 s⁻¹. Moreover, the kon in experiment [8] amounted to 3.34e+06 M⁻¹ s⁻¹. The koff in experiment [9] worked out at 0.000886 s⁻¹. The “Fold change of KD (relative to TC170, lower is better)” value in [11] was determined as 1.5.
